In patent publication US20220242961A1 (ABL BIO, published 2022):
Positions count from the first letter of the chain named. Values belong to the binder of their own block, whether it stands above or below them.

Key:
[1] = target: T1, 4-1BB (antigen of the Octet kinetics) (human, UniProt Q07011 24-186, limits assumed); test: Octet Red 96 kinetics
T1 construct: the whole entry is named
Excerpt: To explore the binding kinetics of the humanized antibody, this example performed the affinity ranking by using Octet Red 96.

human 4-1 BB-Fc protein = target: T2, human 4-1 BB-Fc protein (human, UniProt Q07011 24-186); test: ELISA on plate-coated human 4-1BB-Fc (0.1 ug/ml), goat anti-human IgG-HRP, TMB
T2 construct: also called extracellular domain 4-1 BB antigen; not shown: Fc part
Procedure: To evaluate the antigen binding activity, the antibody candidates were subjected to ELISA test. Briefly, microtiter plates were coated with human 4-1 BB-Fc protein at 0.1 μg/ml in PBS, 100 μl/well at 4° C. overnight, then blocked with 100 μl/well of 5% BSA. Serial dilutions of antibodies obtained in Example 1.1 were added to each well and incubated for 1-2 hours at RT. The plates were washed with PBS/Tween and then incubate with goat-anti-human IgG antibody conjugated with Horse Radish Peroxidase (HRP) for 1 hour at RT. After washing, the plates were developed with TMB substrate and analyzed by spectrophotometer at OD 450-630 nm.

- Kd [1]: 790 pM
- koff [1]: 0.000597 s⁻¹
- kon [1]: 755000 M⁻¹ s⁻¹
B1: 41B03 (antibody, human IgG4 S228P, V domains shown)
VH: EVQLLESGGGLVQPGGSLRLSCAASGFTFSSNVMNWVRQAPGKGLEWVSEISHSGSTNYNPSLKSRFTISRDNSKNTLYLQMNSLRAEDTAVYYCAVGAGNLGYWGQGTLVTVSS
VL: EIVLTQSPGTLSLSPGERATLSCQASQDISNYLNWYQQKPGQAPRLLIYGASSRATGIPDRFSGSGSGTDFTLTISRLEPEDFAVYYCQQYNSYPITFGQGTKLEIKR

- EC50 (read off the curve) (human 4-1 BB-Fc protein): ~30 pM
B2: 41B02 (antibody, human IgG4 S228P, lambda, V domains shown)
VH: EVQLLESGGGLVQPGGSLRLSCAASGFTFSGYDMSWVRQAPGKGLEWVSVIYPDDGNTYYADSVKGRFTISRDNSKNTLYLQMNSLRAEDAAVYYCAKHGGQKPTTKSSSAYGMDGWGQGTLVTVSS
VL: QSVLTQPPSASGTPGRRVTISCSGSSSNIGNNYVTWYQQLPGTAPKLLIYADSHRPSGVPDRFSGSKSGTSASLAISGLRSEDEADYYCATWDYSLSGYVFGGGTKLTVLG
notes: also called anti-4-1BB antibody 41B02; 41B02 clone

- EC50 (read off the curve) (human 4-1 BB-Fc protein): ~30 pM
B3: 41B02.01 (antibody, human IgG4 S228P, lambda, V domains shown)
VH: B2 VH with A91T
VL: B2 VL with R16Q
